Assay results: patent publication US20090297501A1 (Chugai, published 2009)
Residue numbers refer to the chain shown, from its start. Like-named read-outs stand apart in the source and are kept apart here. Each block holds one binder with its values, some of them ahead of it.

Key:
[1] = biological target: T1, fusion protein of GST and MG10 (Gln213 to Ala231 in the amino acid sequence of human Mpl) (human, UniProt P40238 213-231); test: Biacore 3000, MG10-GST amine-coupled on CM5, sc(Fv)2 as analyte, bivalent analyte model, n = 3
T1 construct: the parts follow the printed name MG10-GST; also called MG10-GST fusion protein; not shown: glutathione S-transferase (GST)
Description: The binding activities of hVB22B u2-wz4 sc(Fv)2, and peak 1 and peak 2 separated from hVB22B u2-wz4 sc(Fv)2 were evaluated as described below. Sensor Chip CM5 Biacore) was placed in Biacore 3000 (Biacore), and a fusion protein of MG10 (Gln213 to Ala231 of human Mpl) and GST described in Section 2-1 was immobilized onto the chip by the amine-coupling method. HSS-EP Buffer (Biacore) was used as the running buffer for the measurement. The flow rate was 20 μl/min. Six concentrations of each of humanized VB22B u2-wz4 sc(Fv)2 bulk, peak 1, and peak 2 within about 5 to 150 nM were prepared using HBS-EP Buffer. Each of the samples was injected over the above-described MG10-immobilized cell for 2 minutes to reveal the binding region. Then, the measurement was conducted for 2 minutes to reveal the dissociation region. VB22B sc(Fv)2 bound to the MG10-GST fusion protein was removed by injecting 20 mM HCl for 1 minute to recover the immobilized cell. The association rate constant (ka) and dissociation rate constant (kd) were calculated from the obtained sensorgram using the BIAevaluation Version 3.1 ([…]) software applying the bivalent analyte model.

human Mpl [2] = biological target: T2, human Mpl (human, UniProt P40238 26-635); test: cell-based or functional assay
T2 sequence (looked up): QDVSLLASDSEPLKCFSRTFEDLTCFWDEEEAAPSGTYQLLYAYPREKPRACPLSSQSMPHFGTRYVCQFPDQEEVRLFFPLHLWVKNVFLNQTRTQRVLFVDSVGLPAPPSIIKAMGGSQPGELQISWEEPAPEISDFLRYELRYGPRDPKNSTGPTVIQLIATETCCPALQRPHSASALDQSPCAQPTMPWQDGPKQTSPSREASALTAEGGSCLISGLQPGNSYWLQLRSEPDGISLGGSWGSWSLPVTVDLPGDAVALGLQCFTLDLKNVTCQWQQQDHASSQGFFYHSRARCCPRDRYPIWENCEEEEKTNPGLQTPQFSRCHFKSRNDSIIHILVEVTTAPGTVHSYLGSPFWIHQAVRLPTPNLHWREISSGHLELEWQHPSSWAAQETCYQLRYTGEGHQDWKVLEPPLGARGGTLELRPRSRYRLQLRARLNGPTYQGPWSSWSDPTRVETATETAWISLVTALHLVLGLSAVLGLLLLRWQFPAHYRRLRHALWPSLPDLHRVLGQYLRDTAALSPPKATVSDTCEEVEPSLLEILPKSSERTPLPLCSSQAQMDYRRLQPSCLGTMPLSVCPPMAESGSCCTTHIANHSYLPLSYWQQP

monkey Mpl [3] = biological target: monkey Mpl (monkey); test: cell-based or functional assay
human Mpl [4] = biological target: T2, human Mpl; test: cell-based or functional assay; remark: listed apart in the source
monkey Mpl [5] = biological target: monkey Mpl (monkey); test: cell-based or functional assay; remark: listed apart in the source
human Mpl [6] = biological target: T2, human Mpl; test: cell-based or functional assay; remark: listed apart in the source
monkey Mpl [7] = biological target: monkey Mpl (monkey); test: cell-based or functional assay; remark: listed apart in the source
[8] = biological target: Mpl on the BaF3 cells used in FIG. 33 (human or monkey, not stated); test: cell-based or functional assay

Kd [1]: 10.2 nM | koff [1]: 0.00617 s⁻¹ | kon [1]: 608000 M⁻¹ s⁻¹ | EC50 (read off the curve) (growth of BaF3-human Mpl cells, WST-8) [A] (human Mpl [2]): ~0.04 nM | EC50 (read off the curve) (growth of BaF3-monkey Mpl cells, WST-8) [B] (monkey Mpl [3]): ~0.04 nM | EC50 (read off the curve) (growth of BaF3-human Mpl cells, WST-8) [A] (human Mpl [4]): ~0.06 nM | EC50 (read off the curve) (growth of BaF3-monkey Mpl cells, WST-8) [B] (monkey Mpl [5]): ~0.02 nM
B1: humanized anti-human Mpl antibody hVB22B u2-wz4 sc(Fv)2 (bulk, before separation of the structural isomers) (scFv)
chain: QVQLVQSGPEVKKPGASVKVSCKASGYTFTNSWMNWVRQRPGKGLEWIGRIYPGDGETIYNGKFRVRVTITADESTSTAYMQLSSLRSEDTAVYYCARGYDDYSFAYWGQGTTVTVSSGGGGSGGGGSGGGGSDIVMTQSPLSLPVTPGEPASISCRSSKSLLHSNGNTYLYWFLQKPGQSPQLLIYRMSNLASGVPDRFSGSGSGTDFTLKISRVEAEDVGVYYCMQHIEYPFTFGQGTKLEIKGGGGSGGGGSGGGGSQVQLVQSGPEVKKPGASVKVSCKASGYTFTNSWMNWVRQRPGKGLEWIGRIYPGDGETIYNGKFRVRVTITADESTSTAYMQLSSLRSEDTAVYYCARGYDDYSFAYWGQGTTVTVSSGGGGSGGGGSGGGGSDIVMTQSPLSLPVTPGEPASISCRSSKSLLHSNGNTYLYWFLQKPGQSPQLLIYRMSNLASGVPDRFSGSGSGTDFTLKISRVEAEDVGVYYCMQHIEYPFTFGQGTKLEIK
notes: sc(Fv)2, a single chain VH1-linker-VL2-linker-VH3-linker-VL4, not Flag-tagged; also called humanized VB22B u2-wz4 sc(Fv)2 bulk

Kd [1]: 9.92 nM | koff [1]: 0.00566 s⁻¹ | kon [1]: 571000 M⁻¹ s⁻¹ | EC50 (read off the curve) (growth of BaF3-human Mpl cells, WST-8) [A] (human Mpl [2]): ~0.04 nM | EC50 (read off the curve) (growth of BaF3-monkey Mpl cells, WST-8) [B] (monkey Mpl [3]): ~0.03 nM | EC50 (read off the curve) (growth of BaF3-human Mpl cells, WST-8) [A] (human Mpl [4]): ~0.05 nM | EC50 (read off the curve) (growth of BaF3-monkey Mpl cells, WST-8) [B] (monkey Mpl [5]): ~0.02 nM
B2: hVB22B u2-wz4 sc(Fv)2 peak 2 (single chain diabody type structural isomer) (scFv)
chain: B1 chain
notes: also called purified u2-wz4 peak 2

Kd [1]: 12.4 nM | koff [1]: 0.00727 s⁻¹ | kon [1]: 586000 M⁻¹ s⁻¹ | EC50 (read off the curve) (growth of BaF3-human Mpl cells, WST-8) [A] (human Mpl [2]): ~0.07 nM | EC50 (read off the curve) (growth of BaF3-human Mpl cells, WST-8) [A] (human Mpl [4]): ~0.09 nM
B3: hVB22B u2-wz4 sc(Fv)2 peak 1 (bivalent scFv type structural isomer) (scFv)
chain: B1 chain
notes: also called purified u2-wz4 peak 1

EC50 (read off the curve) (growth of BaF3-human Mpl cells, WST-8) [A] (human Mpl [4]): ~0.1 nM
B4: modified hVB22B u2-wz4(v3) sc(Fv)2 (scFv)
chain: B1 chain with Q39E, Q176K, Q299K, Q436E

EC50 (read off the curve) (growth of BaF3-human Mpl cells, WST-8) [A] (human Mpl [4]): ~0.04 nM | EC50 (read off the curve) (growth of BaF3-monkey Mpl cells, WST-8) [B] (monkey Mpl [5]): ~0.04 nM
B5: modified hVB22B u2-wz4(v1) sc(Fv)2 (scFv)
chain: B1 chain with Q39E, Q176E, Q299K, Q436K

EC50 (read off the curve) (growth of BaF3-human Mpl cells, WST-8) [A] (human Mpl [6]): ~0.008 nM | EC50 (read off the curve) (growth of BaF3-monkey Mpl cells, WST-8) [B] (monkey Mpl [7]): ~0.02 nM | EC50 (read off the curve) (growth of Mpl-expressing BaF3 cells, WST-8; cell line not stated) [8]: ~0.6 ng/mL
B6: anti-human Mpl antibody VB22B sc(Fv)2 peak 2 (single chain diabody type structural isomer) (scFv)
chain: QVQLQQSGPELVKPGASVKISCKASGYAFTNSWMNWVKQRPGKGLEWIGRIYPGDGETIYNGKFRVKATLTADKSSSTAYMDISSLTSEDSAVYFCARGYDDYSFAYWGQGTLVTVSAGGGGSGGGGSGGGGSDIVMTQAAPSIPVTPGESVSISCRSSKSLLHSNGNTYLYWFLQRPGQSPQLLIYRMSNLASGVPDRFSGSGSGTAFTLRISRVEAEDVGVYYCMQHIEYPFTFGSGTKLEIKGGGGSGGGGSGGGGSQVQLQQSGPELVKPGASVKISCKASGYAFTNSWMNWVKQRPGKGLEWIGRIYPGDGETIYNGKFRVKATLTADKSSSTAYMDISSLTSEDSAVYFCARGYDDYSFAYWGQGTLVTVSAGGGGSGGGGSGGGGSDIVMTQAAPSIPVTPGESVSISCRSSKSLLHSNGNTYLYWFLQRPGQSPQLLIYRMSNLASGVPDRFSGSGSGTAFTLRISRVEAEDVGVYYCMQHIEYPFTFGSGTKLEIK

EC50 (read off the curve) (growth of BaF3-human Mpl cells, WST-8) [A] (human Mpl [6]): ~0.01 nM | EC50 (read off the curve) (growth of BaF3-monkey Mpl cells, WST-8) [B] (monkey Mpl [7]): ~0.03 nM
B7: anti-human Mpl antibody VB22B sc(Fv)2 (scFv)
chain: B6 chain
